Here are results for three molecules from article PMC13035910, “Dbf4-dependent kinase finetunes Ino80 function at chromosome replication origins” (Nature Communications, 2026).

The chains are these.
B1: Ino80 subunit of the INO80 complex (natural protein, UniProt P53115 1-1489, looked up)
chain: MSLAVLLNKEDKDISDFSKTTAGKSAKKNSRERVADVAPTRVLDKKQAYLSQLNSEFNRIKRRDSIEQLYQDWKFINLQEFELISEWNQQSKDWQFDNTNDSQDLHFKKLYRDMSMINKEWAEYQSFKNANLSDIINEKDADEDEEDDEDELEDGEEDMEEDEASTGRHTNGKSMRGNGIQKSRKKDAAAAAAIGKAIKDDQTHADTVVTVNGDENEDGNNGEDEDNDNDNENNNDNDNDNENENDNDSDNDDEEENGEEDEEEEEIEDLDEEDFAAFEEQDDNDDEDFNPDVEKRRKRSSSSSSSTKLSMNSLSLITSKKINKNITINSDRPKIVRELIKMCNKNKHQKIKKRRFTNCIVTDYNPIDSKLNIKITLKQYHVKRLKKLINDAKREREREEALKNNVGLDGNDLDNDEDGSESHKRRKLNNNTANGADDANKRKFNTRHGLPTYGMKMNAKEARAIQRHYDNTYTTIWKDMARKDSTKMSRLVQQIQSIRSTNFRKTSSLCAREAKKWQSKNFKQIKDFQTRARRGIREMSNFWKKNEREERDLKKKIEKEAMEQAKKEEEEKESKRQAKKLNFLLTQTELYSHFIGRKIKTNELEGNNVSSNDSESQKNIDISALAPNKNDFHAIDFDNENDEQLRLRAAENASNALAETRAKAKQFDDHANAHEEEEEEDELNFQNPTSLGEITIEQPKILACTLKEYQLKGLNWLANLYDQGINGILADEMGLGKTVQSISVLAHLAENHNIWGPFLVVTPASTLHNWVNEISKFLPQFKILPYWGNANDRKVLRKFWDRKNLRYNKNAPFHVMVTSYQMVVTDANYLQKMKWQYMILDEAQAIKSSQSSRWKNLLSFHCRNRLLLTGTPIQNSMQELWALLHFIMPSLFDSHDEFNEWFSKDIESHAEANTKLNQQQLRRLHMILKPFMLRRVKKNVQSELGDKIEIDVLCDLTQRQAKLYQVLKSQISTNYDAIENAATNDSTSNSASNSGSDQNLINAVMQFRKVCNHPDLFERADVDSPFSFTTFGKTTSMLTASVANNNSSVISNSNMNLSSMSSNNISNGKFTDLIYSSRNPIKYSLPRLIYEDLILPNYNNDVDIANKLKNVKFNIFNPSTNYELCLFLSKLTGEPSLNEFFRVSTTPLLKRVIERTNGPKNTDSLSFKTITQELLEVTRNAPSEGVMASLLNVEKHAYEREYLNCIQRGYHPNVSAPPVTIEVLGSSHVTNSINNELFDPLISQALSDIPAITQYNMHVKKGIPVEDFPKTGLFPEPLNKNFSSNISMPSMDRFITESAKLRKLDELLVKLKSEGHRVLIYFQMTKMMDLMEEYLTYRQYNHIRLDGSSKLEDRRDLVHDWQTNPEIFVFLLSTRAGGLGINLTAADTVIFYDSDWNPTIDSQAMDRAHRLGQTRQVTVYRLLVRGTIEERMRDRAKQKEQVQQVVMEGKTQEKNIKTIEVGENDSEVTREGSKSISQDGIKEAASALA
notes: Ino80, motor ATPase and scaffold subunit of the INO80 complex, budding yeast; endogenous protein with chromosomally inserted tag; Stood in the cross-linking assay as part of the whole purified complex; also called Ino80 scaffold; motor ATPase Ino80; source: endogenously expressed in S. cerevisiae (S288c background; wild-type strain and yPB5), purified within the INO80 or INO80-AA complex …
B2: N-module of the INO80 complex (Nhp10/Ies1/Ies3/Ies5) (complex)
chain 1: MSVEEKKRRLEELKDQNVVLGLAIQRSRLSVKRLKLEYGVLLERLESRIELDPELNCEDPLPTLASFKQELLTKPFRKSKTKRHKVKERDPNMPKRPTNAYLLYCEMNKERIRQNGSLDVTRDLAEGWKNLNEQDRKPYYKLYSEDRERYQMEMEIYNKKISNIDADDDKEENEQKIKNNEEGSSTKVADSKGGEDGSLVSSN
chain 2: MGKRVYDPIHDTFQLREDNSDETKADSPMQSVKSGSQEEASPSSIQSETETVTTKSIPVIHEIEIDDKNDDDSTQSEEENTNILLNFEPSTVPEATGASTATGPVTTNTVRRKPKESNASKYNRHLKKPDGEPFNRKDIQFSFMQELLMDKRQIFTNVLKPLYKNSIVPINIDGDKLSINVTDKEYDARTFVFNDKLTFAQLYVLTIATSIKCSKILRDKLLLDQQVAFSTCVLALLVNIGRLNTTINFYLEMTSQLRTFHSVPVLQLHANDPKLLQDTPRLKSILKNLPWGNEQLSLMETYKKVDQNDGEVDTVNKFNIINMLFSICDNSGLIDKRFLSKYVEVESKAQEQDMVDEQNEVKETEAENEKQESKAAYATTLFDILDYSKYEPKDRSNILIWLLYIHLETNLSQEEVEESVRFFNGLEDGAPAGKFILRCTERSYDTDPEDELEFGANQRIKRREFMSKMEEGRKRERTNVTEVKKPSIGGDKSEEDGEGEDDKSEETVEETRSLLTPTPILESSSPMTLNRKKVTPQLPKVTPAAPTETEEEITSAAIIDKNDLNLTPLKKYNSSATVNKVDKLISLDLNKHVSENGKTQEEFLADLKKSQVPNRLKRRDIGLIKIFNEFEDIPVASVLGIRGKKRKKFKDNLLGFETDFMKNLGASKKVLLNKIERAEIDDEEATAMFKLE
chain 3: MKFEDLLATNKQVQFAHAATQHYKSVKTPDFLEKDPHHKKFHNADGLNQQGSSTPSTATDANAASTASTHTNTTTFKRHIVAVDDISKMNYEMIKNSPGNVITNANQDEIDISTLKTRLYKDNLYAMNDNFLQAVNDQIVTLNAAEQDQETEDPDLSDDEKIDILTKIQENLLEEYQKLSQKERKWFILKELLLDANVELDLFSNRGRKASHPIAFGAVAIPTNVNANSLAFNRTKRRKINKNGLLENIL
chain 4: MPSKDPESVIDKEIRKISARNDELIKQDGTLKREYTTLLRKVSSVITVLNSIDDADTGSAETELPRLISQATVEKVPELKWYNDQISLITEKLEDDEDIEVPEELMDAYTLYKETPLLYNDTHTP
notes: Nhp10, N-module subunit of INO80, budding yeast; endogenous protein; Ies1, N-module subunit of INO80, budding yeast; Ies3, N-module subunit of INO80, budding yeast; Ies5, N-module subunit of INO80, budding yeast; Stood in the cross-linking assay as part of the whole purified complex; also called NHP10 module; N-module subunits; source: endogenously expressed in S. cerevisiae (S288c background; …)
B3: the rest of the N-module of the INO80 complex (Nhp10/Ies3/Ies5) (complex)
chain 1: B2 chain 1
chain 2: B2 chain 3
chain 3: B2 chain 4
notes: Nhp10, N-module subunit of INO80, budding yeast; endogenous protein; Ies3, N-module subunit of INO80, budding yeast; Ies5, N-module subunit of INO80, budding yeast; source: endogenously expressed in S. cerevisiae (S288c background; wild-type strain and yPB5), purified within the INO80 or INO80-AA complex (anti-FLAG M2 resin, Mono Q); copies: + +

Common to all, as to assay: cross-linking; DSBU cross-linking with mass spectrometry of the purified wild-type INO80 complex; 58 uM DSBU, 20 min, 30 C, 1200 rpm; 25 mM HEPES-NaOH pH 7.2, 300 mM NaCl, 5% glycerol, 1 mM DTT, 4 mM MgCl2; repeated with an independent batch
Details in all cases: both partners purified

Test [1] deals with T1, A-module of the INO80 complex (Arp4/Arp8/Act1(actin)/Taf14/Ies4) (S. cerevisiae (endogenous, S288c …, UniProt P80428 1-489; Q12386 1-881; P60010 1-375; P35189 1-244; Q08561 1-116).
T1 construct: Arp4, A-module subunit of INO80, budding yeast; endogenous protein; Arp8, A-module subunit of INO80, budding yeast; endogenous wild-type protein; Act1 (actin), A-module subunit of INO80, budding yeast; Taf14, A-module subunit of INO80, budding yeast; Ies4, A-module subunit of INO80, budding yeast; Stood in the cross-linking assay as part of the whole purified wild-type complex; also called ARP8 …

For test [2], the target named is B1.
The target in test [3] is T2, Ies1 subunit of the INO80 complex (S. cerevisiae (endogenous, S288c …, UniProt P43579 1-692)).
T2 construct: Ies1, N-module subunit of INO80, budding yeast; endogenous protein; Stood in the cross-linking assay as part of the whole purified complex; source: endogenously expressed in S. cerevisiae (S288c background; wild-type strain and yPB5), purified within the INO80 or INO80-AA complex (anti-FLAG M2 resin, Mono Q)
T2 sequence (looked up): B2 chain 2

On to B1, for which the binding result in test [1] is on record as “binds”.
Take B2: the binding result in test [2] is listed as “binds”.
With B3, the binding result in test [3] is listed as “binds”.
